Consider five molecules from patent publication US20100041873A1 (ZymoGenetics, published 2010).

Assay [1] addresses T1, Recombinant human IL-21 (human, UniProt Q9HBE4 30-162). Nature of the assay: cell-based or functional assay.
Assay [2] deals with T1, Recombinant human IL-21. As to the kind of experiment: cell-based or functional assay. This is another data set of the same source.
In assay [3] the target is T2, Recombinant cynomolgus IL-21 (cynomolgus monkey, UniProt Q9HBE4 30-162 (human entry), limits assumed). Nature of the assay: cell-based or functional assay.
T2 sequence (Q9HBE4 other isoform, or with tags, fused parts or gaps limits assumed): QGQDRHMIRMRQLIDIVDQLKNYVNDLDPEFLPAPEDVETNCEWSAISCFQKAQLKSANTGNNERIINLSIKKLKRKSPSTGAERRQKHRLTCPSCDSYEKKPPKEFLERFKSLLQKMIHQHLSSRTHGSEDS
Another assay deals with Recombinant murine IL-21 (mouse, UniProt Q9ES17 18-146). As to the kind of experiment: cell-based or functional assay.
The target of the next assay is Recombinant rat IL-21 (rat, UniProt A3QPB9 18-146, limits assumed). As to the kind of experiment: cell-based or functional assay.
Recombinant rat IL-21, sequence (A3QPB9 18-146 limits assumed): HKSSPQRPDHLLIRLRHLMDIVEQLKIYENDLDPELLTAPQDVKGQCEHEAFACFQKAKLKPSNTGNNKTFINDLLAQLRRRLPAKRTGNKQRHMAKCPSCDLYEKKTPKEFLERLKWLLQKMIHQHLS
Assay [4] deals with T1, Recombinant human IL-21. Nature of the assay: cell-based or functional assay. The source holds these as a separate data set.
In assay [5] the target is T1, Recombinant human IL-21. As to the kind of experiment: cell-based or functional assay. The source holds these as a separate data set.
The target of assay [6] is T3, Recombinant mutant human IL-21 (human, UniProt Q9HBE4 30-162, limits assumed).
T3 construct: also called IL-21 mutant; mutant human IL-21 protein
T3 sequence (Q9HBE4 other isoform, or with tags, fused parts or gaps mutant limits assumed): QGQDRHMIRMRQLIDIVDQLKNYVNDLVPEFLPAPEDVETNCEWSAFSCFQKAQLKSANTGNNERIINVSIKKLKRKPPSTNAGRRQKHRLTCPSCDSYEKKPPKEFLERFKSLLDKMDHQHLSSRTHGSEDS
Nature of the assay: direct ELISA. As for the experimental part:
(§1) Wells were blocked with 200 μL/well of Blocking Buffer (PBS-Tween plus 1% w/v bovine serum albumin (BSA)) for 1 hour, after which the plates were washed twice with Wash Buffer. Antibody dilutions were prepared in 5% fetal bovine serum (FBS)/Iscove's Modified Dulbecco's Media (IMDM) medium and adjusted to 1 μg/ml. […] Following 1 hour incubation at ambient temperature, the wells were aspirated and the plates washed twice as described above. Horseradish peroxidase (HRP) labeled Goat anti Mouse IgG, Fc specific or Goat anti Rat IgG, Fc specific, or Goat anti Human IgG, Fc specific (Jackson ImmunoResearch Laboratories, West Grove, Pa.) at a dilution of 1:5000 with 5% FBS/IMDM medium was then added to each well, 100 μL/well, and the plates incubated at ambient temperature for 1 hour. After removal of unbound HRP conjugated antibody, the plates were washed five times, 100 μL /well of tetra methyl benzidine (TMB) (BioFX Laboratories, Owings Mills, Md.) added to each well and the plates incubated for 3 minutes at ambient temperature. Color development was stopped by the addition of 100 μL /well of 450 nm TMB Stop Reagent (BioFX Laboratories, Owings Mills, Md.) and the absorbance values of the wells read on a Molecular Devices Spectra MAX 340 instrument at 450 nm.

Assay [7] concerns the target T4, Human IL-21 peptide #1 (pyr30-K50) (human, N-terminal pyroGlu).
T4 construct: coated on ELISA plates; also called Peptide 1 N-Term
T4 peptide: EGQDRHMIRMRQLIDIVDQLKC
Nature of the assay: direct ELISA. Here is the method: as §1
In general terms: ELISA stands for enzyme-linked immunosorbent assay.

The target of assay [8] is T5, Human IL-21 peptide #2 (N54-C71) (human).
T5 peptide: NDLVPEFLPAPEDVETNC
Nature of the assay: direct ELISA. Here is the method:
as §1

Assay [9] has as its target T6, Human IL-21 peptide #3 (N97-C122) (human).
T6 peptide: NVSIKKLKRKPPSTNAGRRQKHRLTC
As to the kind of experiment: direct ELISA. Here is the method: as §1

Assay [10] addresses T7, Human IL-21 peptide #4 (C125-S153) (human).
T7 construct: also called Peptide 4 C-Term
Nature of the assay: direct ELISA. As for the experimental part: as §1

Assay [11] has as its target T8, Hu IL-21 Peptide A1750 (conjugated to ovalbumin) (human, also: chemically conjugated to ovalbumin).
T8 construct: also called peptide #2 N54-C71 conjugated to ovalbumin
T8 peptide: NDLVPEFLPAPEDVETNC
As to the kind of experiment: Western blot. Here is the method: (§2) For Western blots, the non-specific sites on the membranes were blocked with a buffer containing 20 mM Tris, pH 7.4, 0.5 mM EDTA, 0.5% IGEPAL CA-630, 150 mM NaCl, 0.25% gelatin, and 1% casein hydrolysate blocking solution (Western Blocking Reagent, Roche Diagnostics, Inc., Basel Switerzerland) (Blocking Buffer). The membranes were then incubated for 2 hrs at room temperature with purified monoclonal antibody (10 ng/ml or 100 ng/ml) in the Blocking Buffer followed by a 2 hr incubation with peroxidase conjugated donkey anti-human IgG (Jackson Laboratories, Bar Harbor, Me.). The membranes were washed 5 times with the Tris/EDTA/IGEPAL/NaCl/gelatin Blocking buffer which lacked the casein hydrolysate and developed with SUPERSIGNAL™ DuraWest Luminol/Enhancer/Peroxidase Solution (Pierce, Rockford, Ill.) for chemoluminescence detection. The blots were visualized using X-ray film based standard methods.
A general note: Immunoblotting shows a protein as a band on a membrane.

Assay [12] has as its target T9, Hu IL-21 Peptide A1751 (conjugated to ovalbumin) (human, conjugated to ovalbumin).
T9 construct: also called peptide #3 N97-C122 conjugated to ovalbumin
T9 peptide: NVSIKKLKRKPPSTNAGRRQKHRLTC
As to the kind of experiment: Western blot. As for the experimental part: as §2

The target of assay [13] is T10, Hu IL-21 Peptide A1752 (conjugated to ovalbumin) (human, conjugated to ovalbumin).
T10 construct: also called peptide #4 C125-S153 conjugated to ovalbumin
T10 sequence (peptide, as listed by the source): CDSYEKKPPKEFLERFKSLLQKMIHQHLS
Nature of the assay: Western blot. Here is the method:
as §2

For assay [14], the target named is T2, Recombinant cynomolgus IL-21. As to the kind of experiment: Western blot. As for the experimental part: as §2
A further assay deals with T11, Recombinant human IL-2 (human, UniProt P60568 21-153).
T11 construct: also called Hu IL-2
T11 sequence (P60568 21-153 limits assumed): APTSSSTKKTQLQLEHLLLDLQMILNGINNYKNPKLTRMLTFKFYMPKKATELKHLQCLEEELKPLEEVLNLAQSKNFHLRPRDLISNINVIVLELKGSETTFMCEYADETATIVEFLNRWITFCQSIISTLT
Nature of the assay: Western blot.

A further assay addresses T12, Recombinant human IL-4 (human, UniProt P05112 25-153).
T12 construct: also called Hu IL-4
T12 sequence (looked up): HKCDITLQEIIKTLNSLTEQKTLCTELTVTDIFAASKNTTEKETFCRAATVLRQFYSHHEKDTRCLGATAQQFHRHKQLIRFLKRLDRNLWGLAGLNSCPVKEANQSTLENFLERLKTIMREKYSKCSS
As to the kind of experiment: Western blot.

In a further assay the target is T13, Recombinant human IL-7 (human, UniProt P13232 26-177).
T13 construct: also called Hu IL-7
T13 sequence (looked up): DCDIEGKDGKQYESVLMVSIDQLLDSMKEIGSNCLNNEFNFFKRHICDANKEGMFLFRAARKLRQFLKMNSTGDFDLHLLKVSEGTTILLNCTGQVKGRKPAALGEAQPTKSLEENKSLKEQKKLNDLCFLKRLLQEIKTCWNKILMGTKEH
As to the kind of experiment: Western blot.

The next assay concerns the target T14, Recombinant human IL-9 (human, UniProt P15248 19-144).
T14 construct: also called Hu IL-9
Nature of the assay: Western blot.

The target in another assay is T15, Recombinant human IL-15 (human, UniProt P40933 49-162).
T15 construct: also called Hu IL-15
T15 sequence (P40933 49-162 limits assumed): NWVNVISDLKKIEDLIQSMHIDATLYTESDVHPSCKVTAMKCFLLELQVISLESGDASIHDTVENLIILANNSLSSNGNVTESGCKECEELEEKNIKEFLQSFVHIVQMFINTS
As to the kind of experiment: Western blot.

Numbering of substitutions follows the chain as printed. Values joined by “and” are separate entries in the source; they are usually repeats but may differ in a detail not shown here. Identical values can stand only once. No end group written: not given here.

T1 sequence (Q9HBE4 30-162 limits assumed): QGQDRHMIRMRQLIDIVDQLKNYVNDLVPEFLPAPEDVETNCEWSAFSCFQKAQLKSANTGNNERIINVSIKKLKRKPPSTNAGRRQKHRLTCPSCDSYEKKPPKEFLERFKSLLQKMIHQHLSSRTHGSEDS
T14 sequence (P15248 19-144 limits assumed): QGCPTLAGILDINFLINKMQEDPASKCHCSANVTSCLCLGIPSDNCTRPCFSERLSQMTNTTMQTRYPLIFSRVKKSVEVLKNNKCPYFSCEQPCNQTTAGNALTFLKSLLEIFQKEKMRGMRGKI

B1: Heterodimeric IL-21 soluble receptor (IL-21R/γc-Fc) (Fc fusion, not shown: a dimerising Fc or GST)
chain 1: not shown
chain 2: LNTTILTPNGNEDTTADFFLTTMPTDSLSVSTLPLPEVQCFVFNVEYMNCTWNSSSEPQPTNLTLHYWYKNSDNDKVQKCSHYLFSEEITSGCQLQKKEIHLYQTFVVQLQDPREPRRQATQMLKLQNLVIPWAPENLTLHKLSESQLELNWNNRFLNHCLEHLVQYRTDWDHSWTEQSVDYRHKFSLPSVDGQKRYTFRVRSRFNPLCGSAQHWSEWSHPIHWGSNTSKENPFLFALEA
On to B1, for which, in the assay with Recombinant human IL-21 [1], the “IC50 (pM), STAT3-phosphorylation assay, Expt #1” value stood at 25 pM; the “IC50 (pM), STAT3-phosphorylation assay, Expt #2” value turned out to be 102 pM; the “IC50 (pM), STAT3-phosphorylation assay, Expt #3 (96 pM IL-21)” value came to 140 pM. In addition, the “IC50 (pM), 24 hr STAT-Luciferase assay, Expt #2” value in the assay with Recombinant human IL-21 [2] worked out at 1830 pM. In addition, the “Cyno IL-21 IC50 ([cIL-21] = 100 pM), STAT-Luciferase assay” value in [3] is 20 ng/mL and 385 pM. In the assay with Recombinant murine IL-21, the “Murine IL-21 IC50 ([mIL-21] = […] nM), STAT-Luciferase assay” value is 426 ng/mL and 8.06 nM. For the same molecule, the “Rat IL-21 IC50 ([rIL-21] = 1.08 nM), STAT-Luciferase assay” value with Recombinant rat IL-21 is 708 ng/mL and 13.4 nM. Besides, the “IC50 (nM), B cell proliferation assay (anti-CD40 + 3.21 nM IL-21)” value in the assay with Recombinant human IL-21 [4] turned out to be 3.5 nM. For the same molecule, in the assay with Recombinant human IL-21 [5], the “% IgD-low, CD138+ Plasma Cells, antagonist:ligand 0.16:1” value was determined as 66.7%; the “% IgD-low, CD138+ Plasma Cells, antagonist:ligand 0.6:1” value came to 54.2%; the “% IgD-low, CD138+ Plasma Cells, antagonist:ligand 2.5:1” value came out at 41.7%; the “% IgD-low, CD138+ Plasma Cells, antagonist:ligand 10:1” value was 23.4%.

B2: Human anti-human IL-21 monoclonal antibody 362.75.1.1 (antibody, V domains shown)
VH: QLQLQESGPGLVKPSETLSLTCTVSGGSISSRTYRWGWIRQPPGKELEWIGSIYYRGSTFYNPSLKSRVTVSVDTSKNQFSLKLSSVTAADTAVYYCARQSGYSGYDWFDPWGQGTLVTVSS
VL: EIVLTQSPATLSLSPGERATLSCRASQSVSSFLAWYQQKPGQAPRLLIYDASNRATGIPARFSGSGSGTDFTLTISSLEPEDFAVYYCQQRSNWITFGQGTRLEIK
notes: Hybridoma antibody, ATCC PTA-8791; isotype printed only as IgG
As for B2, the binding result is given as “no binding (tested: 1 ug/ml mAb)” in assay [6]; “no binding (tested: 1 ug/ml mAb)” in [7]; “no binding (tested: 1 ug/ml mAb)” in assay [8]; “no binding (tested: 1 ug/ml mAb)” in [9]; “binds” in assay [10]; “no binding (tested: 10 or 100 ng/ml mAb)” in assay [11]. Besides, the binding result is listed as “no binding (tested: 10 or 100 ng/ml mAb)” in [12]; “binds” in [13]; “binds” in assay [14]; “no binding” in the assay with Recombinant human IL-2; “no binding” in the assay with Recombinant human IL-4; “no binding” in the assay with Recombinant human IL-7. The binding result with Recombinant human IL-9 and with Recombinant human IL-15 was “no binding” each time.

B3: Human anti-human IL-21 monoclonal antibody 366.552.11 (antibody, V domains shown)
VH: QVQLQESGPGLVKPSETLSLTCTVSGGSISSDFWGWIRQPPGKGLEWIGYISSRGSTNYNPSLKRRVTISVDTSRNQFSLKLSSVTAADTAVYYCARSAGVTDFDFWGQGTLVTVSS
VL: DIQMTQSPSSVSASVGDRVTITCRASQGISSWLAWYQHKPGKAPKLLIYVASSLQSGVPSRFSGSGSGTDFTLTISSLQPEDFATYYCQQANSFPLTFGGGTKVEIK
notes: Hybridoma antibody, ATCC PTA-8787; isotype printed as IgG; also called 366.552.11.31
With B3, the binding result in assay [6] is listed as “no binding (tested: 1 ug/ml mAb)”; in assay [7], “no binding (tested: 1 ug/ml mAb)”; in assay [8], “no binding (tested: 1 ug/ml mAb)”; in assay [9], “no binding (tested: 1 ug/ml mAb)”; in assay [11] it was “no binding (tested: 10 or 100 ng/ml mAb)”; in [12], “no binding (tested: 10 or 100 ng/ml mAb)”. The binding result with Recombinant human IL-2, with Recombinant human IL-4, with Recombinant human IL-7, with Recombinant human IL-9 and in the assay with Recombinant human IL-15 was “no binding” throughout. Moreover, in the assay with Recombinant human IL-21 [1], the “IC50 (pM), STAT3-phosphorylation assay, Expt #1” value came to 59 pM. The “IC50 (pM), 24 hr STAT-Luciferase assay, Expt #1” value with Recombinant human IL-21 [2] came out at 2400 pM. For the same molecule, the “Cyno IL-21 IC50 ([cIL-21] = 100 pM), STAT-Luciferase assay” value in assay [3] is 23 ng/mL and 156 pM. For the same molecule, the “IC50 (nM), B cell proliferation assay (anti-CD40 + 3.21 nM IL-21)” value with Recombinant human IL-21 [4] amounted to 4.75 nM.

B4: Human anti-human IL-21 monoclonal antibody 362.78.1.44 (antibody, V domains shown)
VH: QVQLVESGGGVVQPGRSLRLSCAASGFTFSSYGMHWVRQAPGKGLEWVAFIWYDGSDKYYADSVKGRFTISRDNSKNTLYLQMNSLRAEDTAVYYCARDGDSSDWYGDYYFGMDVWGQGTTVTVSS
VL: not shown
notes: Hybridoma antibody, ATCC PTA-8790; also called clone 78
Turning to B4, the binding result was “no binding (tested: 1 ug/ml mAb)” in assay [7], “no binding (tested: 1 ug/ml mAb)” in [8], “no binding (tested: 10 or 100 ng/ml mAb)” in [11] and “no binding (tested: 10 or 100 ng/ml mAb)” in assay [13]. Further, in the assay with Recombinant human IL-21 [5], the “% IgD-low, CD138+ Plasma Cells, antagonist:ligand 0.16:1” value was found to be 42.8%. The “% IgD-low, CD138+ Plasma Cells, antagonist:ligand 0.6:1” value in the assay with Recombinant human IL-21 [5] was 34.1%. The “% IgD-low, CD138+ Plasma Cells, antagonist:ligand 2.5:1” value with Recombinant human IL-21 [5] is 15.5%. Moreover, the “% IgD-low, CD138+ Plasma Cells, antagonist:ligand 10:1” value in the assay with Recombinant human IL-21 [5] was 13.7%.

B5: Human anti-human IL-21 monoclonal antibody 362.597.3 (antibody, V domains shown)
VH: B4 VH with S31T
VL: not shown
notes: Hybridoma antibody, ATCC PTA-8786; isotype printed as IgG; also called 362.597.3.15
Take B5: the binding result in [7] was “no binding (tested: 1 ug/ml mAb)”; in [8], “no binding (tested: 1 ug/ml mAb)”; in [11], “no binding (tested: 10 or 100 ng/ml mAb)”.
